Tests used:
[1] = target: T1, human CCR8 (C-C chemokine receptor type 8) (human, UniProt P51685 1-355); test: FACS cell binding; Control
[2] = target: T1, human CCR8 (C-C chemokine receptor type …); test: FACS cell binding; human plasma 37°C 7 Day
[3] = target: T1, human CCR8 (C-C chemokine receptor type …); test: FACS cell binding; human plasma 37°C 14 Day

T1 sequence (P51685 whole entry): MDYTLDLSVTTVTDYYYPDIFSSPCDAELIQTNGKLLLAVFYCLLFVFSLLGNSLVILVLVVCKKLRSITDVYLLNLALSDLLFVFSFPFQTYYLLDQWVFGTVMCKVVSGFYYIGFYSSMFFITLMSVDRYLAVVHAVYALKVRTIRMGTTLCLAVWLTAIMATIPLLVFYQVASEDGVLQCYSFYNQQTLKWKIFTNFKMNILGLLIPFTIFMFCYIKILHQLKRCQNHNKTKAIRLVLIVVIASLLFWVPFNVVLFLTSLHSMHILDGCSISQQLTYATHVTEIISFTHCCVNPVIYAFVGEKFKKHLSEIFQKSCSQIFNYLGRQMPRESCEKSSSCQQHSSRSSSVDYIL

EC50 [1]: 0.035 µg/mL
EC50 [2]: 0.0425 µg/mL
EC50 [3]: 0.039 µg/mL
B1: 13F3H6-hz-eADCC (13F3H6-hz with ADCC-enhanced IgG1 Fc) (antibody)
heavy: EVQLVESGGGLVQPGESLRLSCAASGFTFNAYAMNWVRQAPGQGLEWVARIRTKSNNYATYYADSVKGRFTISRDDSKNTLYLEMNSLRAEDTAVYYCVRHKKVREGYAMDYWGQGTLVTVSSASTKGPSVFPLAPSSKSTSGGTAALGCLVKDYFPEPVTVSWNSGALTSGVHTFPAVLQSSGLYSLSSVVTVPSSSLGTQTYICNVNHKPSNTKVDKKVEPKSCDKTHTCPPCPAPELVGGPSVFLLPPKPKDTLMISRTPEVTCVVVDVSHEDPEVKFNWYVDGVEVHNAKTKPPEEQYNSTLRVVSVLTVLHQDWLNGKEYKCKVSNKALPAPIEKTISKAKGQPREPQVYTLPPSREEMTKNQVSLTCLVKGFYPSDIAVEWESNGQPENNYKTTPLVLDSDGSFFLYSKLTVDKSRWQQGNVFSCSVMHEALHNHYTQKSLSLSPGK
light: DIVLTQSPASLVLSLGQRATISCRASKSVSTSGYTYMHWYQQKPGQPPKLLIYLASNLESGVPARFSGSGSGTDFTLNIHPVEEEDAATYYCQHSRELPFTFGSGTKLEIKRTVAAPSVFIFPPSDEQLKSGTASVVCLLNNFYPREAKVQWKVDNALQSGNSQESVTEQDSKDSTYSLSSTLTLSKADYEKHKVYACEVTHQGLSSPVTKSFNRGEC
